Test results as given in ChEMBL document CHEMBL4371014, “Novel Allosteric Ligands of γ-Aminobutyric Acid Transporter 1 (GAT1) by MS Based Screening of Pseudostatic Hydrazone Libraries” (J Med Chem, 2018).

Assays:
[1] = compound: O=C(O)[C@H]1CNC[C@@H](CN/N=C/c2ccc(-c3cccc4ccccc34)o2)C1; experiment: (§1) Non-competitive inhibition of human GAT1 expressed in COS cells assessed as reduction in [2H6]GABA uptake by measuring [2H6]GABA Vmax at 30 uM preincubated for 25 mins followed by [3H]GABA addition and measured after 4 mins by liquid scintillation counting method (reference value: 570 +/- 53 amol/cell.min); format: cell-based
[2] = compound: O=C(O)[C@H]1CNC[C@@H](CN/N=C/c2ccc(-c3cc(C(F)(F)F)cc(C(F)(F)F)c3)o2)C1; experiment: as §1; format: cell-based
[3] = compound: O=C(O)[C@H]1CNC[C@@H](CN/N=C/c2ccc(-c3cccc4ccccc34)o2)C1; experiment: (§2) Non-competitive inhibition of human GAT1 expressed in COS cells assessed as reduction in [2H6]GABA uptake by measuring [2H6]GABA Km(app) at 10 uM preincubated for 25 mins followed by [3H]GABA addition and measured after 4 mins by liquid scintillation counting method (reference value: 12 +/- 1.2 uM); format: cell-based
[4] = compound: O=C(O)[C@H]1CNC[C@@H](CN/N=C/c2ccc(-c3cc(C(F)(F)F)cc(C(F)(F)F)c3)o2)C1; experiment: as §2; format: cell-based
[5] = substrate: Cc1ccsc1C(=CCCN1CCC[C@@H](C(=O)O)C1)c1sccc1C; conditions: Homo sapiens; 100 nM
[6] = compound: O=C(O)[C@H]1CNC[C@@H](CN/N=C/c2ccc(-c3cccc4ccccc34)o2)C1; experiment: as §1, with “10” for “30”; format: cell-based
[7] = compound: O=C(O)[C@H]1CNC[C@@H](CN/N=C/c2ccc(-c3cc(C(F)(F)F)cc(C(F)(F)F)c3)o2)C1; experiment: as §1, with “10” for “30”; format: cell-based
[8] = substrate: Cc1ccsc1C(=CCCN1CCC[C@@H](C(=O)O)C1)c1sccc1C; conditions: Homo sapiens; 100 nM; remark: listed apart in the source
[9] = substrate: Cc1ccsc1C(=CCCN1CCC[C@@H](C(=O)O)C1)c1sccc1C; conditions: Homo sapiens; 300 nM
[10] = substrate: Cc1ccsc1C(=CCCN1CCC[C@@H](C(=O)O)C1)c1sccc1C; conditions: Homo sapiens; 300 nM; remark: listed apart in the source
Description: Mixed-type inhibition of human GAT1 expressed in COS cells assessed as reduction in [2H6]GABA uptake by measuring [2H6]GABA Vmax at 300 nM preincubated for 25 mins followed by [3H]GABA addition and measured after 4 mins by liquid scintillation counting method

[11] = compound: O=C(O)[C@H]1CNC[C@@H](CN/N=C/c2ccc(-c3cccc4ccccc34)o2)C1; experiment: (§3) Non-competitive inhibition of human GAT1 expressed in COS cells assessed as reduction in [2H6]GABA uptake by measuring [2H6]GABA Km(app) at 30 uM preincubated for 25 mins followed by [3H]GABA addition and measured after 4 mins by liquid scintillation counting method (reference value: 12 +/- 1.2 uM); format: cell-based
[12] = compound: O=C(O)[C@H]1CNC[C@@H](CN/N=C/c2ccc(-c3cc(C(F)(F)F)cc(C(F)(F)F)c3)o2)C1; experiment: as §3; format: cell-based

B1: Sodium- and chloride-dependent GABA transporter 1 (Homo sapiens), P30531 (protein)
chain: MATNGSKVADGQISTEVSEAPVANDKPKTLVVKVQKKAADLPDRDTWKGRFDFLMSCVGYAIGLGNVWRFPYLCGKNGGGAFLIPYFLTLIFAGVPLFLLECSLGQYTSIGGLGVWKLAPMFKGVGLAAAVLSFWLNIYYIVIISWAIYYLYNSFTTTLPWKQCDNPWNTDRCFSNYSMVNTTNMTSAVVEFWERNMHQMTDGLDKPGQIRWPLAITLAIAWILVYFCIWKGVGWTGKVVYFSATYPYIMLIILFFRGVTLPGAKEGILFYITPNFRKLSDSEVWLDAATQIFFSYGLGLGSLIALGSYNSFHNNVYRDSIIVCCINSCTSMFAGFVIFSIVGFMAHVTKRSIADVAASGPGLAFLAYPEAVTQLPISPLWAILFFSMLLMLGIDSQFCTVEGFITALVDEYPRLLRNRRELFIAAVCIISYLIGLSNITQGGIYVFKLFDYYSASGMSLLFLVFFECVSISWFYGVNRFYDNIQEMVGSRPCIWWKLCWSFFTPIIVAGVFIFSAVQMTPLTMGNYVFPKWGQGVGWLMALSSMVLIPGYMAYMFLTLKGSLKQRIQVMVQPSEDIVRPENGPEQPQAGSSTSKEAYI
- Vmax (amol/cell.min) [1]: 165
- Vmax (amol/cell.min) [2]: 183
- Km [3]: 10.1 µM
- Km [4]: 8.2 µM
- Vmax (amol/cell.min) [5]: 491
- Vmax (amol/cell.min) [6]: 332
- Vmax (amol/cell.min) [7]: 341
- Km [8]: 19.7 µM
- Km [9]: 29.4 µM
- Vmax (amol/cell.min) [10]: 419
- Km [11]: 5.7 µM
- Km [12]: 5.1 µM
